For one substance, Maximum stimulation (fold), results are on record in patent US20250011468A1.

For the test, the target named is human plasma-derived FIXa (Haematologic Technologies Inc) (human) (UniProt P00740). Kind of test: cell-based or functional assay.
human plasma-derived FIXa (Haematologic Technologies Inc) (human), sequence (P00740 47-191, chain 1 of 2): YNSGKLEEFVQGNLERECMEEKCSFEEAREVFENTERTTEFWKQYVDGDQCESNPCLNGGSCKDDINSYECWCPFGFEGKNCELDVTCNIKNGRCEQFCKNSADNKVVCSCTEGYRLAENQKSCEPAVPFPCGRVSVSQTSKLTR
human plasma-derived FIXa (Haematologic Technologies Inc) (human), sequence (P00740 227-461, chain 2 of 2): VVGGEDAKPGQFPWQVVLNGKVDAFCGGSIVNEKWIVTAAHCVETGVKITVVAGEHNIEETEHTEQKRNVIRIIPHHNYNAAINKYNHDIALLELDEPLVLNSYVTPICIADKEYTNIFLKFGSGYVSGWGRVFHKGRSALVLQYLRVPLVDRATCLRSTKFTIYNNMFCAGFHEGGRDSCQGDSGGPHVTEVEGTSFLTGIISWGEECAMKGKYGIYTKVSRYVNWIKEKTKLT

The substance ACE910 (bispecific antibody) came in with a Maximum stimulation (fold), at 15300 nM BiAb of 808 fold.
